Consider two substances from patent publication US20040121386.

Series [1] concerns unactive MKK7β1 (UBI).
In series [2] the test system is T1, His-tagged MKK7γ1.
T1 sequence: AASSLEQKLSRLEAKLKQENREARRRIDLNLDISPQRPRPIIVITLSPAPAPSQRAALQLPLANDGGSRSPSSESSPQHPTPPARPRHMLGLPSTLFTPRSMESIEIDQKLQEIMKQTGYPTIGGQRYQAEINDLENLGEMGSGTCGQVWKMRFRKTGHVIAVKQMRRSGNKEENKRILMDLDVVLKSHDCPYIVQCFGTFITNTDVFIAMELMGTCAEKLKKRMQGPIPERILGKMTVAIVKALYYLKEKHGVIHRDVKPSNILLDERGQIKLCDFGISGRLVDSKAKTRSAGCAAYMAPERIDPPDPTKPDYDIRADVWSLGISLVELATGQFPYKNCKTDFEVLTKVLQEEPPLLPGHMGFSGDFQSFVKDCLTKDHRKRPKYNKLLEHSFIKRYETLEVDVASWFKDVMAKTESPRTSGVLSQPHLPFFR

In series [3] the test system is unactive JNK1 (Upstate, Inc.).

On to Active MEKK1 (Upstate, Inc.), for which the “phosphorylation in a two-step cascade kinase assay (γ-32P-ATP, SDS/PAGE, autoradiography)” value in series [1] was “The His-tagged MKK7γ1 protein and the MKK7β1 protein was phosphorylated by MEKK1”; in series [2] it was “The His-tagged MKK7γ1 protein and the MKK7β1 protein was phosphorylated by MEKK1”.

On to unactive MKK7β1 (UBI), for which the “phosphorylation in a two-step cascade kinase assay (γ-32P-ATP, SDS/PAGE, autoradiography)” value in series [3] is “in turn was able to phosphorylate JNK1”.
